In patent publication US20160002357A1 (Pfizer, published 2016):
Like-named read-outs stand apart in the source and are kept apart here.

What was measured:
[1] = biological target: T1, P-cadherin-ECD1-3-Fc protein (human P-cadherin-Fc) (human, UniProt P22223 108-440); assay: phage scFv ELISA, coated P-cadherin-ECD1-3-Fc
T1 construct: Construct was expressed with signal peptide and pro-peptide (PACE co-transfected to process the propeptide); not shown: hinge and CH2 and CH3 domains of human IgG1
Description: ScFvs may be expressed on the surface of a phage particle. To prepare phage expressing scFv on their surface, 96-deep well plates containing 1 mL 2× TY media with 2% glucose/100 μg/mL ampicillin were inoculated with 0.5-1 μL from thawed glycerol stocks (one clone per well) using the QPix™2 Colony picker (Molecular Devices, Sunnyvale Calif.) and grown at 37° C. (900 rpm) for ˜4 hours. Next, 5 μL of a 1:29 dilution of helper phage (8.3×10¹³ pfu) was added and the plates and incubated for a further 30 minutes at 37° C. with no shaking then 1 hour at 300 rpm. Plates were centrifuged and the media was replaced with a kanamycin/non-glucose containing media (2× TY with 50 μg/mL kanamycin and 100 μg/mL ampicillin). Plates were grown overnight at 25° C. (900 rpm), and phage were harvested in the supernatant following centrifugation.
(§1) P-cadherin-ECD1-3-Fc protein or negative control protein was coated overnight at 4° C. on 96-well Nunc Maxisorp® plates (Thermo Fisher Scientific, Madison, Conn.) at a concentration of 2 μg/mL in PBS+Ca²⁺ and Mg²⁺. Plates were washed three times using PBS+Ca²⁺ and Mg²⁺ and blocked for 1 hour at room temperature in 3% milk/PBS+Ca²⁺ and Mg²⁺. Phage samples prepared as described above were added to the blocked plates for 1 hour at room temperature. Plates were washed three times with PBS+Ca²⁺ and Mg²⁺ prior to the addition of secondary antibody (anti M13-HRP 1:2000, GE Healthcare, Piscataway, N.J.). Plates were incubated for a further 1 hour at room temperature and washed six times with PBS+Ca²⁺ and Mg²⁺. Signal was developed using TMB (SurModics, Eden Prairie, Minn.), the reaction stopped with H₂SO₄ and the absorbance read at 450 nm on an EnVision® plate reader (Perkin Elmer, Waltham, Mass.).

[2] = biological target: T1, P-cadherin-ECD1-3-Fc protein (human …); assay: phage scFv ELISA, coated P-cadherin-ECD1-3-Fc; remark: listed apart in the source
Description: as §1

[3] = biological target: T2, cynomolgus monkey P-cadherin ECD (cynomolgus monkey); assay: SPR Biacore
T2 construct: extracellular domain; also called cyno P-cadherin ECD; Cyno P-cadherin
Description: Binding affinity of EK-DART proteins to P-cadherin and CD3 was analyzed by SPR using a BIACORE® 3000 biosensor (GE Healthcare). The antigens huCD3εδ and either human P-cadherin-Fc or human/cynomolgus monkey/murine P-cadherin-ECD were immobilized on the CM-5 sensor chip by amine coupling kit as recommended by the manufacturer. […] All EK-DART proteins in Tables 15 and 16 comprise CD3-2.
All EK-DART proteins in Table 17 comprise CD3-2.

T1 sequence (P22223 108-440): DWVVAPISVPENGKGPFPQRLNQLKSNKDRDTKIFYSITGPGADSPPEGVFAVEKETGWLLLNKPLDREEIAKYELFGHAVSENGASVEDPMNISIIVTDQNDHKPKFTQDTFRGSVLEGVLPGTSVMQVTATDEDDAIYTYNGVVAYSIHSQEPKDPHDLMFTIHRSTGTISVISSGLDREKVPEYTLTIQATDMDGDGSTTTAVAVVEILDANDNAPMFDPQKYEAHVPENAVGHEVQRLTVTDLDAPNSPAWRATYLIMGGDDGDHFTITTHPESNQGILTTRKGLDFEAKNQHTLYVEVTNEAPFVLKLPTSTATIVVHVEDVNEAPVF

| Binder | % of binding of Clone #153 to human P-cadherin-Fc [1] [%] | Human P-cadherin-Fc binding (OD450) [1] [OD450] | Z Score [1] | % of binding of Clone #153 to human P-cadherin-Fc [2] [%] | Human P-cadherin-Fc binding (OD450) [2] [OD450] | Z Score [2] | Kd [3] [nM] | koff [3] [s⁻¹] | kon [3] [M⁻¹ s⁻¹] |
| --- | --- | --- | --- | --- | --- | --- | --- | --- | --- |
| anti-P-cadherin scFv 153 (parental clone 153), displayed on phage (scFv, V domains shown, scFv expressed on the surface of phage) VH: EVQLVQSGAEVKKPGASVKVSCKASGYTFTSYGISWVRQAPGQGLEWMGWISAYNGNTNYAQKLQGRVTMTTDTSTSTAYMELRSLRSDDTAVYYCATIDTANAFGIWGQGTMVTVSS VL: QSVLTQPPSVSAAPGQKVTISCSGSSSNIGNNYVSWYQQLPGTAPKLLIYDNNKRPSGIPDRFSGSKSGTSATLGITGLQTGDEADYYCGTWDSSLSGVVFGGGTKLTVL | 100 | 1.32 | 0 | 100 | 1.32 | 0 | – | – | – |
| anti-P-cadherin scFv 153 alanine-mutant L3.11-Ala (scFv, V domains shown, scFv on phage) VH: EVQLVQSGAEVKKPGASVKVSCKASGYTFTSYGISWVRQAPGQGLEWMGWISAYNGNTNYAQKLQGRVTMTTDTSTSTAYMELRSLRSDDTAVYYCATIDTANAFGIWGQGTMVTVSS VL: QSVLTQPPSVSAAPGQKVTISCSGSSSNIGNNYVSWYQQLPGTAPKLLIYDNNKRPSGIPDRFSGSKSGTSATLGITGLQTGDEADYYCGTWDSSLSGVAFGGGTKLTVL | 104 | 1.38 | 0.1 | – | – | – | – | – | – |
| 154 EK-DART (bispecific antibody) chain 1: QSVLTQPPSVSAAPGQKVTISCSGSSSNIGNNYVSWYQQLPGTAPKLLIYDNNKRPSGIPDRFSGSKSGTSATLGITGLQTGDEADYYCGTWDSSLSSYVFGTGTKVTVLGGGSGGGGEVQLVESGGGLVQPGGSLRLSCAASGFTFNTYAMNWVRQAPGKGLEWVARIRSKYNNYATYYADSVKDRFTISRDDSKNSLYLQMNSLKTEDTAVYYCVRHGNFGNSYVSWFAYWGQGTLVTVSSGGCGGGKVAALKEKVAALKEKVAALKEKVAALKE chain 2: QAVVTQEPSLTVSPGGTVTLTCRSSTGAVTTSNYANWVQQKPGQAPRGLIGGTNKRAPWTPARFSGSLLGGKAALTITGAQAEDEADYYCALWYSNLWVFGGGTKLTVLGGGGSGGGGEVQLVQSGAEVKKPGASVKVSCKASGYTFTSYGISWVRQAPGQGLEWMGWISAYNGNTNYAQKLQGRVTMTTDTSTSTAYMELRSLRSDDTAVYYCATIDTATAFDIWGQGTMVTVSSGGCGGGEVAALEKEVAALEKEVAALEKEVAALEK | – | – | – | – | – | – | 3.93 | 0.0039 | 1.04e+06 |
| 165 EK-DART (bispecific antibody) chain 1: QSVLTQPPSVSAAPGQKVTISCSGSSSNIGNNYVSWYQQLPGTAPKLLIYDNNKRPSGIPDRFSGSKSGTSATLGITGLQAGDEADYYCGTWDSSLSAYVFGTGTKVTVLGGGSGGGGEVQLVESGGGLVQPGGSLRLSCAASGFTFNTYAMNWVRQAPGKGLEWVARIRSKYNNYATYYADSVKDRFTISRDDSKNSLYLQMNSLKTEDTAVYYCVRHGNFGNSYVSWFAYWGQGTLVTVSSGGCGGGKVAALKEKVAALKEKVAALKEKVAALKE chain 2: QAVVTQEPSLTVSPGGTVTLTCRSSTGAVTTSNYANWVQQKPGQAPRGLIGGTNKRAPWTPARFSGSLLGGKAALTITGAQAEDEADYYCALWYSNLWVFGGGTKLTVLGGGGSGGGGEVQLVQSGAEVKKPGASVKVSCKASGYTFTSYGISWVRQAPGQGLEWMGWISAYNGNTNYAQKLQGRVTMTTDTSTSTAYMELRSLRSDDTAVYYCATIDTANAFDIWGQGTMVTVSSGGCGGGEVAALEKEVAALEKEVAALEKEVAALEK | – | – | – | – | – | – | 0.37 | 0.000309 | 834000 |
